In experiment [1] the target is SARS-CoV-2 receptor binding domain (RBD) (Severe acute respiratory syndrome coronavirus 2 (2019-nCoV) (SARS-CoV-2).) (UniProt P0DTC2).
For experiment [2], the target named is SARS-CoV-2 receptor binding domain (RBD) (SARS-CoV-2) (UniProt P0DTC2).

Take C002 (antibody): the IC50 of neutralisation of SARS-CoV-2 pseudovirus (293T (ACE2) cells) in experiment [1] is 0.00888 µg/mL.

With C144 (antibody), the IC50 of neutralisation of SARS-CoV-2 pseudovirus (293T (ACE2) cells) in experiment [2] stood at 0.00691 µg/mL.

Substance C104 (antibody) displayed an IC50 of neutralisation of SARS-CoV-2 pseudovirus (293T (ACE2) cells) in experiment [1] of 0.0233 µg/mL.

For C110 (antibody), the IC50 of neutralisation of SARS-CoV-2 pseudovirus (293T (ACE2) cells) in experiment [1] stood at 0.0184 µg/mL.

C105 (antibody) displayed an IC50 of neutralisation of SARS-CoV-2 pseudovirus (293T (ACE2) cells) in experiment [1] of 0.0261 µg/mL.

These data come from publication PMC7263513.
